Test results reported in patent EP3831849A1 (LamKap Bio beta AG, dated 2021).

T1: biotinylated recombinant human CEACAM5 (human, UniProt P06731 35-685, biotin on the C-terminal Avitag)
T1 construct: also called CD66e; not shown: C-terminal Avitag plus hexa-histidine tag, human Fc or mouse Fc
T1 sequence: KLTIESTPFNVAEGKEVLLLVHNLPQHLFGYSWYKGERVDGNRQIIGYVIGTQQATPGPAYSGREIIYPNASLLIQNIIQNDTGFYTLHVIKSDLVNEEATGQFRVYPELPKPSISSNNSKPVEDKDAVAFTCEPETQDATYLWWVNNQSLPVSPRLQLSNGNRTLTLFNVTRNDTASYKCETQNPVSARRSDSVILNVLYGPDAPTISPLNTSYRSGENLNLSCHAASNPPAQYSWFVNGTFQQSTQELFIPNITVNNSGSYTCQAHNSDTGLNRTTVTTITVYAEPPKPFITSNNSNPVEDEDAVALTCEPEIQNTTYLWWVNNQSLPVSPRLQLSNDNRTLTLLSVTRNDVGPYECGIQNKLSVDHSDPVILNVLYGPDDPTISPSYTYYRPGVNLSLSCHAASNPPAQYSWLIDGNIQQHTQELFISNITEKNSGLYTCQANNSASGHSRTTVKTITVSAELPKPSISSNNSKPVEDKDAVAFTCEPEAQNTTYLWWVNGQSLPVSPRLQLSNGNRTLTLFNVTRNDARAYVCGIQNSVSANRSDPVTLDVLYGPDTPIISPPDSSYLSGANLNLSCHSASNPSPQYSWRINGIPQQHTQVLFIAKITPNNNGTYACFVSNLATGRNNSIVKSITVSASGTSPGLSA

T2: human CEACAM5 expressed on MKN-45 wt cells (human, UniProt P06731 35-702)
T2 construct: MKN-45 cells also express CD47 and CEACAM6; also called CEACAM5 on MKN45
T2 sequence: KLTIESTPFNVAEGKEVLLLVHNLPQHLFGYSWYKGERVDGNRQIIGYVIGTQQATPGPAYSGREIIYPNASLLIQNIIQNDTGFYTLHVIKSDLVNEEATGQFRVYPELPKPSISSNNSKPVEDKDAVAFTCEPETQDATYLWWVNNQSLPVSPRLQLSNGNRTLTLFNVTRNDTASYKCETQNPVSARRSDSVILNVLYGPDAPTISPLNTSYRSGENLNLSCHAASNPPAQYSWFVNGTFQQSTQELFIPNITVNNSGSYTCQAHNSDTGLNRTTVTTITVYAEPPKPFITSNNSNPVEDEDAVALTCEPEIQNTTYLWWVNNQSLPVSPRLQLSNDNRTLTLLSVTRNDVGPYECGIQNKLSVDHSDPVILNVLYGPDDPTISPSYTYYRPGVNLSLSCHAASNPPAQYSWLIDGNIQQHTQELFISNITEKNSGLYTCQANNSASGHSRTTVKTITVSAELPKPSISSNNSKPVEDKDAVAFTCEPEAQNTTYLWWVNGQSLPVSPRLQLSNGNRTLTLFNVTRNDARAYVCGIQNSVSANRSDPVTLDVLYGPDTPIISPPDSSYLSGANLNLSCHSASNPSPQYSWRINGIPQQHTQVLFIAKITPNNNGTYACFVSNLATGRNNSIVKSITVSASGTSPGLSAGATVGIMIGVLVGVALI


What was measured:
[1] = molecular target: T1, biotinylated recombinant human CEACAM5; test: ELISA; biotinylated recombinant protein on streptavidin plate; bivalent mAb titrated
[2] = molecular target: T3, recombinant cynomolgus monkey CEACAM5 (cynomolgus monkey (macaca fascicularis)); test: as above
T3 construct: also called cyno CEACAM5; cynomolgus CEACAM5

[3] = molecular target: T2, human CEACAM5 expressed on MKN-45 wt …; test: flow cytometry on MKN-45 wt cells (express CEACAM5 and CD47)

Binder | EC50 [1] [pM] | EC50 [2] [pM] | EC50 [3] [pM] | Emax (MFI) [3] [MFI]
AC43 (antibody, human IgG1, kappa, V domains shown, Bivalent IgG1 mAb; 6 carries the IgG1 Fc) VH: not shown VL: DIQMTQSPSSLSASVGDRVTITCQASQNIPRTINWYQQKPGKAPKLLIYDISNLETGVPSRFSGSGSGTDFTFTISSLQPEDIATYYCQQVGLNPELTTFGQGTKVEIKR | 80 | 700 |  | 
AC66 (antibody, human IgG1, kappa, V domains shown, Bivalent IgG1 mAb; 6 carries the IgG1 Fc) VH: not shown VL: DIQMTQSPSSLSASVGDRVTITCQASQNIPRTINWYQQKPGKAPKLLIYDISNLETGVPSRFSGSGSGTDFTFTISSLQPEDIATYYCQQVTLDPEENTFGQGTKVEIKR | 12 | 10 |  | 
AC61 (antibody, human IgG1, kappa, V domains shown, Bivalent IgG1 mAb; 6 carries the IgG1 Fc) VH: not shown VL: DIQMTQSPSSLSASVGDRVTITCQASQNIPRTINWYQQKPGKAPKLLIYDISNLETGVPSRFSGSGSGTDFTFTISSLQPEDIATYYCQQVTLDPEEMTFGQGTKVEIKR | 8 | 20 |  | 
AC63 (antibody, human IgG1, kappa, V domains shown, Bivalent IgG1 mAb; 6 carries the IgG1 Fc) VH: not shown VL: DIQMTQSPSSLSASVGDRVTITCQASQNIPRTINWYQQKPGKAPKLLIYDISNLETGVPSRFSGSGSGTDFTFTISSLQPEDIATYYCQSVTLWPELTTFGQGTKVEIKR | 16 | 20 |  | 
AC60 (antibody, human IgG1, kappa, V domains shown, Bivalent IgG1 mAb; 6 carries the IgG1 Fc; 167 is the one used in the embodiments) VH: not shown VL: DIQMTQSPSSLSASVGDRVTITCQASQNIPRTINWYQQKPGKAPKLLIYDISNLETGVPSRFSGSGSGTDFTFTISSLQPEDIATYYCQQVGLNWDDRAFGQGTKVEIKR | 13 | 60 |  | 
AC45 (antibody, human IgG1, lambda, V domains shown, Bivalent IgG1 mAb; 6 carries the IgG1 Fc) VH: not shown VL: QSVLTQPPSASGTPGQRVTISCSGSSSNIVGVGVNWYQQLPGTAPKLLIYSYNKRPSGVPDRFSGSKSGTSASLAISGLQSEDEADYYCAAYDADMIVPAPVFGGGTKLTVLG | 100 | 30 |  | 
AC48 (antibody, human IgG1, lambda, V domains shown, Bivalent IgG1 mAb; 6 carries the IgG1 Fc) VH: not shown VL: QSVLTQPPSASGTPGQRVTISCSGSSSNINGVGVNWYQQLPGTAPKLLIYEFNKRPSGVPDRFSGSKSGTSASLAISGLQSEDEADYYCAAYDAARYVPAPVFGGGTKLTVLG | 50 | 40 |  | 
AC44 (antibody, human IgG1, lambda, V domains shown, Bivalent IgG1 mAb; 6 carries the IgG1 Fc) VH: not shown VL: QSVLTQPPSASGTPGQRVTISCSGSSSNIVGVGVNWYQQLPGTAPKLLIYSYNKRPSGVPDRFSGSKSGTSASLAISGLQSEDEADYYCAAYDFLPVLPAPVFGGGTKLTVLG | 90 | 70 |  | 
AC47 (antibody, human IgG1, lambda, V domains shown, Bivalent IgG1 mAb; 6 carries the IgG1 Fc) VH: not shown VL: QSVLTQPPSASGTPGQRVTISCSGSSSNINGVGVNWYQQLPGTAPKLLIYGFNSRPSGVPDRFSGSKSGTSASLAISGLQSEDEADYYCAAYDMSTYVPAPVFGGGTKLTVLG | 30 | 60 |  | 
K2AC58 (bispecific antibody, human IgG1, kappa, lambda) heavy: not shown light 1: QSVLTQPPSVSGAPGQRVTISCTGSSSNIGVAHDVHWYQQLPGTAPKLLIYDYSERPSGVPDRFSGSKSGTSASLAITGLQAEDEADYYCQSWDNGPNGLVWVFGGGTKLTVLGQPKAAPSVTLFPPSSEELQANKATLVCLISDFYPGAVTVAWKADSSPVKAGVETTTPSKQSNNKYAASSYLSLTPEQWKSHRSYSCQVTHEGSTVEKTVAPTECS light 2: not shown |  |  | 20000 | 300000
AC54 (antibody, human IgG1, lambda, V domains shown, Bivalent IgG1 mAb; 6 carries the IgG1 Fc; also called CEACAM5 mAb AC54) VH: not shown VL: QSVLTQPPSVSGAPGQRVTISCTGSSSNIHDVGYVHWYQQLPGTAPKLLIYGASGRPSGVPDRFSGSKSGTSASLAITGLQAEDEADYYCQSYDTRQVVPTPVFGGGTKLTVLG | 30 | 20 |  | 
AC53 (antibody, human IgG1, lambda, V domains shown, Bivalent IgG1 mAb; 6 carries the IgG1 Fc) VH: not shown VL: QSVLTQPPSVSGAPGQRVTISCTGSSSNIHDVGYVHWYQQLPGTAPKLLIYGASGRPSGVPDRFSGSKSGTSASLAITGLQAEDEADYYCQSYDGRAVFPTPVFGGGTKLTVLG | 30 | 20 |  | 

The remaining lines, values ahead:

EC50 [1] [pM] | EC50 [2] [pM] | EC50 [3] [pM] | Emax (MFI) [3] [MFI] | Binder
16 | 30 |  |  | AC64 (antibody, human IgG1, kappa, V domains shown, Bivalent IgG1 mAb; 6 carries the IgG1 Fc) VH: not shown VL: DIQMTQSPSSLSASVGDRVTITCQASQNIPRTINWYQQKPGKAPKLLIYDISNLETGVPSRFSGSGSGTDFTFTISSLQPEDIATYYCQQVTLEPEELTFGQGTKVEIKR
300 | 600 |  |  | AC41 (antibody, human IgG1, kappa, V domains shown, Bivalent IgG1 mAb; 6 carries the IgG1 Fc) VH: not shown VL: DIQMTQSPSSLSASVGDRVTITCQASQEIAATLNWYQQKPGKAPKLLIYNYSTLETGVPSRFSGSGSGTDFTFTISSLQPEDIATYYCQQVGLNPENTTFGQGTKVEIKR
100 | 600 |  |  | AC42 (antibody, human IgG1, kappa, V domains shown, Bivalent IgG1 mAb; 6 carries the IgG1 Fc) VH: not shown VL: DIQMTQSPSSLSASVGDRVTITCQASQRIARTLNWYQQKPGKAPKLLIYNFSALETGVPSRFSGSGSGTDFTFTISSLQPEDIATYYCQQVGLDPNLTTFGQGTKVEIKR
14 | 30 |  |  | AC65 (antibody, human IgG1, kappa, V domains shown, Bivalent IgG1 mAb; 6 carries the IgG1 Fc) VH: not shown VL: DIQMTQSPSSLSASVGDRVTITCQASQNIPRTINWYQQKPGKAPKLLIYDISNLETGVPSRFSGSGSGTDFTFTISSLQPEDIATYYCGSVTLNPELTTFGQGTKVEIKR
12 | 10 |  |  | AC62 (antibody, human IgG1, kappa, V domains shown, Bivalent IgG1 mAb; 6 carries the IgG1 Fc) VH: not shown VL: DIQMTQSPSSLSASVGDRVTITCQASQNIPRTINWYQQKPGKAPKLLIYDISNLETGVPSRFSGSGSGTDFTFTISSLQPEDIATYYCQQVTLEPELTTFGQGTKVEIKR
70 | 40 |  |  | AC46 (antibody, human IgG1, lambda, V domains shown, Bivalent IgG1 mAb; 6 carries the IgG1 Fc) VH: not shown VL: QSVLTQPPSASGTPGQRVTISCSGSSSNIVGVGVNWYQQLPGTAPKLLIYSYNKRPSGVPDRFSGSKSGTSASLAISGLQSEDEADYYCAAYDFSLLLPAPVFGGGTKLTVLG
 |  | 26000 | 400000 | K2AC59 (bispecific antibody, human IgG1, kappa, lambda) heavy: not shown light 1: QSVLTQPPSVSGAPGQRVTISCTGSSSNIGVAHDVHWYQQLPGTAPKLLIYDYSERPSGVPDRFSGSKSGTSASLAITGLQAEDEADYYCQSWDNSENGLIYVFGGGTKLTVLGQPKAAPSVTLFPPSSEELQANKATLVCLISDFYPGAVTVAWKADSSPVKAGVETTTPSKQSNNKYAASSYLSLTPEQWKSHRSYSCQVTHEGSTVEKTVAPTECS light 2: not shown
20 | 20 |  |  | AC56 (antibody, human IgG1, lambda, V domains shown, Bivalent IgG1 mAb; 6 carries the IgG1 Fc) VH: not shown VL: QSVLTQPPSVSGAPGQRVTISCTGSSSNIINNSYVHWYQQLPGTAPKLLIYAPSNRPSGVPDRFSGSKSGTSASLAITGLQAEDEADYYCQSYDTTGVMPTPVFGGGTKLTVLG
30 | 20 |  |  | AC55 (antibody, human IgG1, lambda, V domains shown, Bivalent IgG1 mAb; 6 carries the IgG1 Fc) VH: not shown VL: QSVLTQPPSVSGAPGQRVTISCTGSSSNIHDVGYVHWYQQLPGTAPKLLIYGASGRPSGVPDRFSGSKSGTSASLAITGLQAEDEADYYCQSYDTSAVFPTPVFGGGTKLTVLG
30 | 20 |  |  | AC52 (antibody, human IgG1, lambda, V domains shown, Bivalent IgG1 mAb; 6 carries the IgG1 Fc) VH: not shown VL: QSVLTQPPSVSGAPGQRVTISCTGSSSNIHDVGYVHWYQQLPGTAPKLLIYGASGRPSGVPDRFSGSKSGTSASLAITGLQAEDEADYYCQSYDTKREFPTPVFGGGTKLTVLG
 |  | 129000 | 1.84e+06 | AC42K2 H-CL1 (bispecific antibody, human IgG1, kappa, lambda, CEACAM5xCD47 κλ body, IgG1, common heavy chain; CEACAM arm light chain fully kappa, CD47 arm light chain hybrid) heavy: not shown light 1: not shown light 2: DIQMTQSPSSLSASVGDRVTITCRASQSISSYLNWYQQKPGKAPKLLIYAASSLQSGVPSRFSGSGSGTDFTLTISSLQPEDFATYYCQQMHPRAPKTFGGGTKLTVLGQPKAAPSVTLFPPSSEELQANKATLVCLISDFYPGAVTVAWKADSSPVKAGVETTTPSKQSNNKYAASSYLSLTPEQWKSHRSYSCQVTHEGSTVEKTVAPTECS
